Experimental data published in PMC7181197.

B1: A(60)-Cy5 RNA (ssRNA)
RNA: AAAAAAAAAAAAAAAAAAAAAAAAAAAAAAAAAAAAAAAAAAAAAAAAAAAAAAAAAAAA
modifications: 3' pCp-Cy5 ligated (adds one 3' C)
B2: A(60) RNA unlabeled (ssRNA)
RNA: B1 RNA

Tests used:
[1] = target: GFP-G3BP1(WT);mCherry-Caprin-1 (human?;human?, UniProt Q13283;Q14444 1-466;1-709, |); assay: EMSA
GFP-G3BP1(WT) [2] = target: T1, GFP-G3BP1(WT) (UniProt Q13283 1-466); assay: EMSA
GFP-G3BP1(S149A) = GFP-G3BP1(S149A) (UniProt Q13283 1-466, S149A); assay: EMSA
GFP-G3BP1(WT) [3] = target: T1, GFP-G3BP1(WT); assay: analytical size exclusion chromatography

T1 sequence (Q13283 whole entry): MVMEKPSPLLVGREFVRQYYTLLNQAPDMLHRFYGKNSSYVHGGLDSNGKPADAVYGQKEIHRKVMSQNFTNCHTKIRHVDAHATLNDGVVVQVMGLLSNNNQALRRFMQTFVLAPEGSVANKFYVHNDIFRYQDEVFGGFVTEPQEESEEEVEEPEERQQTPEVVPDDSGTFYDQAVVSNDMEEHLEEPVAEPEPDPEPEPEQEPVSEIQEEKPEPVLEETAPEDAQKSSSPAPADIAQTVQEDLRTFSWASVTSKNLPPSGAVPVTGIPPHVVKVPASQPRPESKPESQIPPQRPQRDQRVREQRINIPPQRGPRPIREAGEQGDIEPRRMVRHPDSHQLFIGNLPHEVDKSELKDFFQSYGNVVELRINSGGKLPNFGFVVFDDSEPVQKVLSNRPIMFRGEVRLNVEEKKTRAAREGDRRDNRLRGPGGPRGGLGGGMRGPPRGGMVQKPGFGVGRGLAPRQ
GFP-G3BP1(S149A), sequence (Q13283 whole entry S149A): as the sequence (Q13283 whole entry) above, with S149A counted along it
GFP-G3BP1(WT);mCherry-Caprin-1, sequence (Q13283 whole entry, chain 1 of 2): as the sequence (Q13283 whole entry) above
GFP-G3BP1(WT);mCherry-Caprin-1, sequence (Q14444 whole entry, chain 2 of 2): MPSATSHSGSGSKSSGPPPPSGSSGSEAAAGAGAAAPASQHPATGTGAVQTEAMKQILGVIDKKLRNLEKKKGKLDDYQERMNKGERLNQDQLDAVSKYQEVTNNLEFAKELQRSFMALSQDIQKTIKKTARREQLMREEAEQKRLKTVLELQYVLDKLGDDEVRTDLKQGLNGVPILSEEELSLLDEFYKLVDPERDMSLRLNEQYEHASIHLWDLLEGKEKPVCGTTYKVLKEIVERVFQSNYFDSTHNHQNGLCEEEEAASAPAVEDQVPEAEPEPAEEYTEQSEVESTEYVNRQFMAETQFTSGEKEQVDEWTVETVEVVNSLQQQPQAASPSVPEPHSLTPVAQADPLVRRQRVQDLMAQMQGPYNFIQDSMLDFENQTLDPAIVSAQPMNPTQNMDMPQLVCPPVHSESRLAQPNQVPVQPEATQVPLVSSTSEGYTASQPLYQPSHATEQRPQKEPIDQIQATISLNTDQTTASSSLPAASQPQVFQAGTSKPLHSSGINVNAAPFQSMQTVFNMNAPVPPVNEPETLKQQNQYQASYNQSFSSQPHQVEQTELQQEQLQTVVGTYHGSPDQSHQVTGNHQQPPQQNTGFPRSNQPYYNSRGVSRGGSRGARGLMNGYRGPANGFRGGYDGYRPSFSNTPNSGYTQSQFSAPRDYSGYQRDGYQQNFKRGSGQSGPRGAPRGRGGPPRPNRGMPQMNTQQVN

Binder	binding result [1]	Kd (GFP-G3BP1(WT) [2]) [µM]	Kd (GFP-G3BP1(S149A)) [µM]	binding result (GFP-G3BP1(WT) [3])
B1	binds	~2	~1.9	–
B2	–	–	–	binds
